From patent US20160298117, “PEANUT-BINDING NUCLEIC ACID MOLECULE AND USE THEREOF” (NEC Solution Innovators, Ltd., published 2016)

Tests used:
[1] = target: T1, conarachin (undenatured) (Arachis hypogaea) (UniProt P43238); experiment: SPR; details: all T replaced by 5-tryptaminocarbonyl-dU (TrpdU); printed as P_M_NES01 in table; same SPR buffer
T1 sequence: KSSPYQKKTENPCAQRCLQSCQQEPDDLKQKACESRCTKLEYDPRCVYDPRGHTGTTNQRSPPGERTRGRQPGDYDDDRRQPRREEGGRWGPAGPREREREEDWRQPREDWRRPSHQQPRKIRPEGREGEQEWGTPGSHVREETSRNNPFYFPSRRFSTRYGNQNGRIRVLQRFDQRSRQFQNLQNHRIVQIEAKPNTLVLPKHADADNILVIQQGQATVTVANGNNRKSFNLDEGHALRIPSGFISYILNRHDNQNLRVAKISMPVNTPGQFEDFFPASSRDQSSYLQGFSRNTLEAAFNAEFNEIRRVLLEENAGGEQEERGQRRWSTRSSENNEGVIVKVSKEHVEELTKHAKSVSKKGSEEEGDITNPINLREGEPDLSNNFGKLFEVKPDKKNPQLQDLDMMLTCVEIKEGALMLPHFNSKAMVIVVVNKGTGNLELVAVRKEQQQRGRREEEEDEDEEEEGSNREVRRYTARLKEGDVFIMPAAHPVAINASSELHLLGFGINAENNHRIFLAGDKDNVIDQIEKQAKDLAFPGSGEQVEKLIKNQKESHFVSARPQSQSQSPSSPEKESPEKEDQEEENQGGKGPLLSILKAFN

[2] = target: T2, beta-conglycinin (undenatured) (Glycine max, UniProt P0DO16;P11827;P25974 P0DO16:63-605,P11827:63-621,P25974:24-439); experiment: SPR; little binding, 18.75-300 nM; details: tags: Sigma C5868-5GM
T2 sequence (P0DO16 63-605, chain 1 of 3): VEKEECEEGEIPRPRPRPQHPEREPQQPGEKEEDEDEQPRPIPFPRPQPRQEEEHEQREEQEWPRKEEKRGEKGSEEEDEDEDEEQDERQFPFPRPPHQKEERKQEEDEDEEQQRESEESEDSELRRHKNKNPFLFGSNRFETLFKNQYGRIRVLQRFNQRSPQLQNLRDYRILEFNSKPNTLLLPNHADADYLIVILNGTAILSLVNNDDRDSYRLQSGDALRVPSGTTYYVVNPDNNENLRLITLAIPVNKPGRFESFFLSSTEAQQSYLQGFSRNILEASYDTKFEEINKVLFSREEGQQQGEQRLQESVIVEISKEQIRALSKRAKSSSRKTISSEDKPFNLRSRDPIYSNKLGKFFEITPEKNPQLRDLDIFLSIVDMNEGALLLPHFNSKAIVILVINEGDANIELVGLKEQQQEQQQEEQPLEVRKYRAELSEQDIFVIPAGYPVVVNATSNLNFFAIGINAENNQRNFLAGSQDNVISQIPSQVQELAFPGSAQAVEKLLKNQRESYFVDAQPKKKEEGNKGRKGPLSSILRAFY
T2 sequence (P11827 63-621, chain 2 of 3): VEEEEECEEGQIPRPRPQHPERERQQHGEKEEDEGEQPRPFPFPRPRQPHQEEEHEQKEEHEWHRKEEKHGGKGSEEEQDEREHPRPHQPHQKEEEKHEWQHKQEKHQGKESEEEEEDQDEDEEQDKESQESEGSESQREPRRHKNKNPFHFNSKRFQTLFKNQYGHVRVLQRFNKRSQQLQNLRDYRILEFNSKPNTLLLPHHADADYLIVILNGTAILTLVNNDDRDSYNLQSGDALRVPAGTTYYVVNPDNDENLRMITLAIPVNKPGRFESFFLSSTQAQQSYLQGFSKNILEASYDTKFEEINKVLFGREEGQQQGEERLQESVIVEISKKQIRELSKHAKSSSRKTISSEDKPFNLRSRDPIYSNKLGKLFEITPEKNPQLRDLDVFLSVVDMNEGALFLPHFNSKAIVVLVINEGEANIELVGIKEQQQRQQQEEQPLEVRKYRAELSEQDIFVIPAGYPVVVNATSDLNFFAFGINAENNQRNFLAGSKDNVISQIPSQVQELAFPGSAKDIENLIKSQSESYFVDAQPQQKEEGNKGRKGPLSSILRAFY
T2 sequence (P25974 24-439, chain 3 of 3): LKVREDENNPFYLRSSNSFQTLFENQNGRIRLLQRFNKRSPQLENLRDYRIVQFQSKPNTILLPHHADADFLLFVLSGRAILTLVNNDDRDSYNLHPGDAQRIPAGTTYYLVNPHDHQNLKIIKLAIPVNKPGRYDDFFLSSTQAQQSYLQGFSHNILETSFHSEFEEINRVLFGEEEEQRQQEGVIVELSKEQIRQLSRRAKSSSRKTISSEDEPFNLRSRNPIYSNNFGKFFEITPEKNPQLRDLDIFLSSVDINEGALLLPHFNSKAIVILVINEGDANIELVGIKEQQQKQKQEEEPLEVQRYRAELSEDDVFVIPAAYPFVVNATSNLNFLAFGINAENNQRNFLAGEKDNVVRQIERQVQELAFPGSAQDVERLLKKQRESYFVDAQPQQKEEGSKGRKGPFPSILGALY
Protocol: (§1) First, as a sensor chip designed specifically for the ProteON, a streptavidin-immobilized chip (trade name: ProteOn NLC Sensor Chip, BioRad) was set in the ProteON XPR36. Biotinylated poly(dT) at 5 μmol/L was injected to a flow cell of the sensor chip using ultrapure water (DDW), and the binding was allowed to proceed until the signal intensity (RU: Resonance Unit) reached about 900 RU. The biotinylated poly(dT) was prepared by biotinylating the 5′ end of 24-mer deoxythymidine. Then, the poly(dA)-added aptamer at 1 μmol/L was injected to the flow cell of the chip using an SPR buffer at a flow rate of 25 μL/min for 80 seconds, and the binding was allowed to proceed until the signal intensity reached about 800 RU. […] Subsequently, the sample was injected using the SPR buffer at a flow rate of 50 μL/min for 120 seconds, followed by washing performed by flowing the SPR buffer under the same conditions. Signal intensity measurement was performed concurrently with the injection of the sample and the washing with the SPR buffer.
(§2) The concentrations of the β-conglycinin were set to 18.75, 37.5, 75, 150, and 300 nmol/L, and the protein concentrations in the soybean samples were set to 1, 3, 10, 30, and 100 ppm. The SPR analysis was performed in the same manner as in Example 1, except that these samples were used. Then, from the results of the above-described SPR analysis, the relative binding value was determined regarding the proteins in each peanut sample bound to the aptamer immobilized on the chip. The relative binding value was calculated as the ratio of the protein binding measured value to the aptamer immobilization measured value (the protein binding measured value/the aptamer immobilization measured value).

[3] = target: T3, Ara h1 (heat-denatured, purified from parboiled peanut) (Arachis hypogaea, UniProt P43238 P43238:26-626); experiment: SPR; 40 mM HEPES pH 7.5, 125 mM NaCl, 5 mM KCl, 1 mM MgCl2, 0.05% Tween 20; details: tags: INDOOR biotechnologies NA-AH1-1
T3 sequence: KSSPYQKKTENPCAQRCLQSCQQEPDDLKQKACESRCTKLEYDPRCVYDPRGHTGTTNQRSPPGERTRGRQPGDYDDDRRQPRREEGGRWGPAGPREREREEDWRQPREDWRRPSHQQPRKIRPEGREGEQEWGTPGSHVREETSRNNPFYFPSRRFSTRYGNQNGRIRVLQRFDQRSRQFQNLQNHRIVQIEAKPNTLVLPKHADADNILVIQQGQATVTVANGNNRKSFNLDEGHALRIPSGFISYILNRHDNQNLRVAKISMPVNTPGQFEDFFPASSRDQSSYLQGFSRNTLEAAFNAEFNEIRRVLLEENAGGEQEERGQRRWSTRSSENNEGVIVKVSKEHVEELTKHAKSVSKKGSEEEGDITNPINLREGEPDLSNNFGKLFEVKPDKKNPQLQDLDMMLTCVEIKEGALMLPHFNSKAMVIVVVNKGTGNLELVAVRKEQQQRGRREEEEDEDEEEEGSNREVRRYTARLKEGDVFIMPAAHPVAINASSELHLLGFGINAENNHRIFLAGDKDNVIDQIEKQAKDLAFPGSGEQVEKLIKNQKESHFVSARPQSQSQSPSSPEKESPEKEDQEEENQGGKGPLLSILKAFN
Protocol: as §1
Samples were prepared by adjusting commercially available peanut allergen Ara h1 (INDOOR biotechnologies, #NA-AH1-1, Blanched peanut, crushed [Runner cultivar]) to 50 nmol/L, 25 nmol/L, 12.5 nmol/L, and 6.25 nmol/L. The Ara h1, which is purified from parboiled peanuts, is a heat-denatured protein. The SPR analysis was carried out in the same manner as in Example 1, and the kinetic parameter was calculated from the results of the analysis.

[4] = target: beta-conglycinin (heat-denatured, boiled 10 min) (Glycine max, UniProt P0DO16;P11827;P25974 P0DO16:63-605,P11827:63-621,P25974:24-439); experiment: SPR; little binding, 18.75-300 nM; details: tags: Sigma C5868-5GM
Sequence of beta-conglycinin (heat-denatured, boiled 10 min) (P0DO16 63-605, chain 1 of 3): as the sequence (P0DO16 63-605, chain 1 of 3) above
Sequence of beta-conglycinin (heat-denatured, boiled 10 min) (P11827 63-621, chain 2 of 3): as the sequence (P11827 63-621, chain 2 of 3) above
Sequence of beta-conglycinin (heat-denatured, boiled 10 min) (P25974 24-439, chain 3 of 3): as the sequence (P25974 24-439, chain 3 of 3) above
Protocol: as §1, with “Biotinylated” for “First, as a sensor chip designed specifically for the ProteON, a streptavidin-immobilized chip (trade name: ProteOn NLC Sensor Chip, BioRad) was set in the ProteON XPR36. Biotinylated”
As soybean allergen samples, undenatured β-conglycinin, heat-denatured β-conglycinin, undenatured soybean proteins, and heat-denatured soybean proteins were provided. A commercially available product (Sigma, trade name β-conglycinin from Glycine max (soybean), C5868-5GM) was used as the undenatured β-conglycinin. The heat-denatured β-conglycinin was prepared by boiling the undenatured β-conglycinin for 10 minutes and then collecting a supernatant fraction. As the undenatured soybean proteins and the heat-denatured soybean proteins, the undenatured soybean sample and the heat-denatured soybean sample in Example 1 were used.
as §2, with “chip.” for “chip. The relative binding value was calculated as the ratio of the protein binding measured value to the aptamer immobilization measured value (the protein binding measured value/the aptamer immobilization measured value).”

[5] = target: T3, Ara h1 (heat-denatured, purified from …); experiment: SPR; very high binding; details: tags: INDOOR biotechnologies NA-AH1-1
Protocol: as §1
(§3) Except that the following eight types of aptamers were used as pyrimidine-rich aptamers, the binding forces to Ara h1, heat-denatured peanut proteins, undenatured β-conglycinin, and heat-denatured soybean proteins were examined by SPR in the same manner as in the above-described examples.

[6] = target: T2, beta-conglycinin (undenatured); experiment: SPR; little binding; details: tags: Sigma C5868-5GM
Protocol: as §1, §3

Molecule | binding result [5] | binding result [6] | further results
GGATTCCGTGCCGTGCTAAAGGCCTCCCCGTTTATAGGCAGGTATCCGGCAGACTACTGGGCTTGCGACAAATGAAAAAAAAAAAAAAAAAAAAAAAA [P_NES_M01 (CONA170TEDAR2R8m1)] |  |  | Kd [1]: 0.0388 nM
P_NES03 (CONA161R2R8m1s32) (ssDNA) DNA: GTTCGTGGTGTGTTGTGTGTGATTCCAGGGACAAAAAAAAAAAAAAAAAAAAAAAA |  |  | binding result [2]: no binding; Kd [3]: 0.173 nM; binding result [4]: no binding
CACACACACCCCCCCCCCCACACACAAAAAAAAAAAAAAAAAAAAAAAAA (ssDNA) [CA25_C11] | binds | no binding | 
CACACACACACCCCCCCACACACACAAAAAAAAAAAAAAAAAAAAAAAAA (ssDNA) [CA25_C7] | binds | no binding | 
CACACACACACACACACACACACACAAAAAAAAAAAAAAAAAAAAAAAAA (ssDNA) [CA25_C0] | binds | no binding | 
CACACACACACACCCACACACACACAAAAAAAAAAAAAAAAAAAAAAAAA (ssDNA) [CA25_C3] | binds | no binding | 
CTCTCTCTCCCCCCCCCCCTCTCTCAAAAAAAAAAAAAAAAAAAAAAAA (ssDNA) [CT25_C11] | binds | no binding | 
